Results taken from publication PMC4351203.

How the values were obtained:
Settings in all cases: reference: wild type; sites Y554
[1] = biological target: paxillin (endogenous, HEK293T) (UniProt P49023); assay: anti-FLAG IP, FLAG-peptide elution, Western blot
[2] = biological target: Hic-5 (endogenous, HEK293T) (UniProt O43294); assay: anti-FLAG IP, FLAG-peptide elution, Western blot
[3] = biological target: paxillin (Myc-tagged; endogenous in mouse brain) (UniProt Q8VI36); assay: anti-FLAG co-IP, anti-Myc blot
Hic-5 (Myc-tagged) = Hic-5 (Myc-tagged) (UniProt Q62219); assay: anti-FLAG co-IP, anti-Myc blot

Measured: binding against the reference

Git1 (FLAG-, YFP-tagged, transfected) (from UniProt Q9Z272) Y554F
stronger: all assays above
